This note sets out measurements from paper PMC6338448 (Cell reports, 2018).

Assay [1] addresses T1, recombinant soluble (ΔGPI) Fc-tagged RECK (sRECK-Fc) (human, UniProt O95980 23-942).
T1 sequence (looked up): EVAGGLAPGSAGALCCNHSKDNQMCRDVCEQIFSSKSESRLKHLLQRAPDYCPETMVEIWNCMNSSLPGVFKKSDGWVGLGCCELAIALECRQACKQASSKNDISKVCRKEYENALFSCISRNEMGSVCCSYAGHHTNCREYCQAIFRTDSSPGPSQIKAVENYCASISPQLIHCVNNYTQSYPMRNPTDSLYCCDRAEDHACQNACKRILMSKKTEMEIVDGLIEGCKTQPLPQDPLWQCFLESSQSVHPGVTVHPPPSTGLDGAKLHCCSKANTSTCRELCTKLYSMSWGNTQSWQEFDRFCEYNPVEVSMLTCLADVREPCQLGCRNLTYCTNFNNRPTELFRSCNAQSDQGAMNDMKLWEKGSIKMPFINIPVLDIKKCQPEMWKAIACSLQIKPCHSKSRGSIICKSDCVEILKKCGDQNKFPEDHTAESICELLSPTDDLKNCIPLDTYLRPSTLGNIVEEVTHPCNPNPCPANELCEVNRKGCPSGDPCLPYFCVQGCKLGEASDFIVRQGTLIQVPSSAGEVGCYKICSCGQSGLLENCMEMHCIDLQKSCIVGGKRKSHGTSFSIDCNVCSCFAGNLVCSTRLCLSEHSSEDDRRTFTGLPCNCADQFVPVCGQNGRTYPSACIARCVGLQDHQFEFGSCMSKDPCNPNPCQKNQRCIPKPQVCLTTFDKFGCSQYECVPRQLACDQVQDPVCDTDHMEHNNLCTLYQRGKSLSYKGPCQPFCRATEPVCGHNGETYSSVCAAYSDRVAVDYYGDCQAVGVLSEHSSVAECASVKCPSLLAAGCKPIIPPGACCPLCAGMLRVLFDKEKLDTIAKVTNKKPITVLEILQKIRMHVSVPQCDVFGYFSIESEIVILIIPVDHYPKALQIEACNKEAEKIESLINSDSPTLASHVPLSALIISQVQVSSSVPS
The assay can be described thus: pull-down.

The target of assay [2] is T1, recombinant soluble (ΔGPI) Fc-tagged …. The assay can be described thus: pull-down. The source holds these as a separate data set.
Assay [3] has as its target T2, C-terminally His-tagged soluble RECK (sRECK-His) (human, UniProt O95980 23-942).
T2 sequence (looked up): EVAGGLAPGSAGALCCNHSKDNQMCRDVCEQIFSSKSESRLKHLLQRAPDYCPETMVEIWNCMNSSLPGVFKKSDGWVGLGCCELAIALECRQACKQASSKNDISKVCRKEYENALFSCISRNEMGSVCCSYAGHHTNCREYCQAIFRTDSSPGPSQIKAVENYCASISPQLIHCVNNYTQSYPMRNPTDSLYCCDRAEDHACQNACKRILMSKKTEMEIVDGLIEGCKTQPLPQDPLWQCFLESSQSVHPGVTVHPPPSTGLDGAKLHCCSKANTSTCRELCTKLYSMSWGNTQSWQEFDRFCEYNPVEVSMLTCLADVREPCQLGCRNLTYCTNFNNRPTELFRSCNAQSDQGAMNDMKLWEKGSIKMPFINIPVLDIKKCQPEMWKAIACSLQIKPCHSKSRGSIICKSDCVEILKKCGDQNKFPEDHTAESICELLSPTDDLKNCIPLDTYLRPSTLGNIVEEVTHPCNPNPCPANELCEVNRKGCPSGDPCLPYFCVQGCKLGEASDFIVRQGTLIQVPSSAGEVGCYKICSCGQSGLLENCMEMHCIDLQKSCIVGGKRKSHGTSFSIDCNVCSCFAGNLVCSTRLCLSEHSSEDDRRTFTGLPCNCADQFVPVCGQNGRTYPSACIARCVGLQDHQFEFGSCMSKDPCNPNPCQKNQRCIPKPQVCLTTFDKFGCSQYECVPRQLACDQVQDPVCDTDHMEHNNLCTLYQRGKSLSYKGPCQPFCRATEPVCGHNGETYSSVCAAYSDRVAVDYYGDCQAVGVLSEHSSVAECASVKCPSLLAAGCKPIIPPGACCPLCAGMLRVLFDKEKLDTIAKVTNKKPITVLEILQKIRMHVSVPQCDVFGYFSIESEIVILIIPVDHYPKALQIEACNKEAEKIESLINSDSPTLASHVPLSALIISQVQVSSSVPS
Nature of the assay: cross-linking.

What is called stoichiometry N is the number of molecules, sites or subunits per partner or assembly.

Read-outs that look alike come from different tables or passages of the source.

B1: sGPR124 ΔHRM (Δaa 349 - 426) (domain or fragment, human)
chain: APGCPLSIRSCKCSGERPKGLSGGVPGPARRRVVCSGGDLPEPPEPGLLPNGTVTLLLSNNKITGLRNGSFLGLSLLEKLDLRNNIISTVQPGAFLGLGELKRLDLSNNRIGCLTSETFQGLPRLLRLNISGNIFSSLQPGVFDELPALKVVDLGTEFLTCDCHLRWLLPWAQNRSLQLSEHTLCAYPSALHAQALGSLQEAQLCCEGALELHTHHLIPSLRQVVFQGDRLPFQCSASYLGNDTRIRWYHNRAPVEGDEQAGILLAESLIHDCTFITSELTLSHIGVWASGEWECTVSMAQGNASKKVEIVVLETLYTFVLMPINASNALTLAHQLRVYTAEAASFSDMMDVVYVAQMIQKFLGYVDQIKELVEVMVDMASNLMLVDEHLLWLAQREDKACSRIVGALERIGGAALSPHAQHISVNARNVALEAYLIKPHSYVGLTCTAFQRREGGVPGTRPGSPGQNPPPEPEPPADQQLRFRCTTGRPNVSLSSFHIKNSVALASIQLPPSLFSSLPAALAPPVPPDCTLQLLVFRNGRLFHSHSNTSRPGAAGPGKRRGVATPVIFAGTSGCGVGNLTEPVAVSLRHWAEGAEPVAAWWSQEGPGEAGGWTSEGCQLRSSQPNVSALHCQHLGNVAVLMELDGGGS
Consider B1, for which, in assay [1], the binding result is reported as “binds”.

B2: recombinant soluble GPR124 ECD (sGPR124), C-terminally His-tagged (domain or fragment)
chain: APGCPLSIRSCKCSGERPKGLSGGVPGPARRRVVCSGGDLPEPPEPGLLPNGTVTLLLSNNKITGLRNGSFLGLSLLEKLDLRNNIISTVQPGAFLGLGELKRLDLSNNRIGCLTSETFQGLPRLLRLNISGNIFSSLQPGVFDELPALKVVDLGTEFLTCDCHLRWLLPWAQNRSLQLSEHTLCAYPSALHAQALGSLQEAQLCCEGALELHTHHLIPSLRQVVFQGDRLPFQCSASYLGNDTRIRWYHNRAPVEGDEQAGILLAESLIHDCTFITSELTLSHIGVWASGEWECTVSMAQGNASKKVEIVVLETSASYCPAERVANNRGDFRWPRTLAGITAYQSCLQYPFTSVPLGGGAPGTRASRRCDRAGRWEPGDYSHCLYTNDITRVLYTFVLMPINASNALTLAHQLRVYTAEAASFSDMMDVVYVAQMIQKFLGYVDQIKELVEVMVDMASNLMLVDEHLLWLAQREDKACSRIVGALERIGGAALSPHAQHISVNARNVALEAYLIKPHSYVGLTCTAFQRREGGVPGTRPGSPGQNPPPEPEPPADQQLRFRCTTGRPNVSLSSFHIKNSVALASIQLPPSLFSSLPAALAPPVPPDCTLQLLVFRNGRLFHSHSNTSRPGAAGPGKRRGVATPVIFAGTSGCGVGNLTEPVAVSLRHWAEGAEPVAAWWSQEGPGEAGGWTSEGCQLRSSQPNVSALHCQHLGNVAVLMELDGGGS
In the case of B2, the binding result in assay [2] is “binds”.

B3: WNT7A (co-expressed with sRECK-His in Expi293F cells) (ligand, human, UniProt O00755 32-349, looked up)
chain: LGASIICNKIPGLAPRQRAICQSRPDAIIVIGEGSQMGLDECQFQFRNGRWNCSALGERTVFGKELKVGSREAAFTYAIIAAGVAHAITAACTQGNLSDCGCDKEKQGQYHRDEGWKWGGCSADIRYGIGFAKVFVDAREIKQNARTLMNLHNNEAGRKILEENMKLECKCHGVSGSCTTKTCWTTLPQFRELGYVLKDKYNEAVHVEPVRASRNKRPTFLKIKKPLSYRKPMDTDLVYIEKSPNYCEEDPVTGSVGTQGRACNKTAPQASGCDLMCCGRGYNTHQYARVWQCNCKFHWCCYVKCNTCSERTEMYTCK
Take B3: the “stoichiometry N” value in assay [3] worked out at 1.
